# Test results reported in the supplement of paper PMC10567573.
# B1: DULLARD (parent)
# chain: LVVFTASMEIYGSAVADKLDNSRS
# Variants of: B1
# Assay: protein stability index of a GFP-peptide fusion (GPS, HEK-293T) (PSI 1-6); higher = more stable
# Conditions: c terminus: a fixed tail appended
# 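Also: lentivirally expressed fusions sorted by FACS into six bins by GFP to DsRed ratio, PSI derived from sequencing read proportions per bin multiplied by bin number.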
row,Variant,protein stability index
1,EVVFTASMEIYGSAVADKLDNSRS [L1E],2.25
2,DVVFTASMEIYGSAVADKLDNSRS [L1D],2.44
3,RVVFTASMEIYGSAVADKLDNSRS [L1R],2.49
4,VVVFTASMEIYGSAVADKLDNSRS [L1V],3.46
5,HVVFTASMEIYGSAVADKLDNSRS [L1H],1.19
6,CVVFTASMEIYGSAVADKLDNSRS [L1C],1.94
7,SVVFTASMEIYGSAVADKLDNSRS [L1S],1.94
8,YVVFTASMEIYGSAVADKLDNSRS [L1Y],2.57
9,PVVFTASMEIYGSAVADKLDNSRS [L1P],3.74
10,LEVFTASMEIYGSAVADKLDNSRS [V2E],2.46
11,LKVFTASMEIYGSAVADKLDNSRS [V2K],1.78
12,LNVFTASMEIYGSAVADKLDNSRS [V2N],2.5
13,LRVFTASMEIYGSAVADKLDNSRS [V2R],2.25
14,LAVFTASMEIYGSAVADKLDNSRS [V2A],2.1
15,LCVFTASMEIYGSAVADKLDNSRS [V2C],1.61
16,LDVFTASMEIYGSAVADKLDNSRS [V2D],3.02
17,LPVFTASMEIYGSAVADKLDNSRS [V2P],2.93
18,LVVFTASMEIYGSAVAYKLDNSRS [D17Y],2.6
19,LVVFTASMEIYGSAVAVKLDNSRS [D17V],1.97
20,LVVFTASMEIYGSAVAKKLDNSRS [D17K],2.26
21,LVVFTASMEIYGSAVARKLDNSRS [D17R],2.48
22,LVVFTASMEIYGSAVALKLDNSRS [D17L],3.58
23,LVVFTASMEIYGSAVADHLDNSRS [K18H],1.88
24,LVVFTASMEIYGSAVADGLDNSRS [K18G],1.99

row,Variant,protein stability index
1,LVVFTASMEIYGSAVADVLDNSRS [K18V],2.79
2,LVVFTASMEIYGSAVADILDNSRS [K18I],4.09
3,LVVFTASMEIYGSAVADDLDNSRS [K18D],2.94
4,LVVFTASMEIYGSAVADKLDTSRS [N21T],2.67
5,LVVFTASMEIYGSAVADKLDRSRS [N21R],2.68
6,LVVFTASMEIYGSAVADKLDGSRS [N21G],1.8
7,LVVFTASMEIYGSAVADKLDSSRS [N21S],4.01
8,LVVFTASMEIYGSAVADKLDVSRS [N21V],1.5
9,LVVFTASMEIYGSCVADKLDNSRS [A14C],2.02
10,LVVFTASMEIYGSRVADKLDNSRS [A14R],4.28
11,LVVFTASMEIYGSVVADKLDNSRS [A14V],1.69
12,LVVFTASMEIYGSDVADKLDNSRS [A14D],1.19
13,LVVFTASMEIYGSTVADKLDNSRS [A14T],3.78
14,LVVFTASMEIYGSSVADKLDNSRS [A14S],2.32
15,LVVFTASMEIYGSAVADKLSNSRS [D20S],3.14
16,LVVFTASMEIYGSAVADKLTNSRS [D20T],2.02
17,LVVFTASMEIYGSAVADKLVNSRS [D20V],2.63
18,LVVFTASMEIYGSAVADKLKNSRS [D20K],1.88
19,LVVFTASMEIYGSAVADKLYNSRS [D20Y],2.51
20,LVVFTASMEIYGSAVADKLQNSRS [D20Q],3.44
21,LVVFTASMEIYGSAVADKLCNSRS [D20C],1.69
22,LVVFTASMEIYGSAVADKLANSRS [D20A],3.32
23,LVVFTASMNIYGSAVADKLDNSRS [E9N],1.74
24,LVVFTASMCIYGSAVADKLDNSRS [E9C],2.96

row,Variant,protein stability index
1,LVVFTASMVIYGSAVADKLDNSRS [E9V],3
2,LVVFTASMPIYGSAVADKLDNSRS [E9P],3.01
3,LVVFTASMEIYGSAVADKLDNMRS [S22M],2.31
4,LVVFTASMEIYGSAVADKLDNARS [S22A],2.39
5,LVVFTASMEIYGSAVADKLDNDRS [S22D],2.71
6,LVVFTASMEIYGSAVADKLDNGRS [S22G],2.5
7,LVVFTASMEIYGGAVADKLDNSRS [S13G],1.68
8,LVVFTASMEIYGDAVADKLDNSRS [S13D],2.37
9,LVVFTASMEIYGEAVADKLDNSRS [S13E],1.36
10,LVVFTASMEIYGAAVADKLDNSRS [S13A],2.72
11,LVVFTASMEIYGQAVADKLDNSRS [S13Q],1.29
12,LVVFTACMEIYGSAVADKLDNSRS [S7C],3.12
13,LVVFTADMEIYGSAVADKLDNSRS [S7D],1.55
14,LVVFTAHMEIYGSAVADKLDNSRS [S7H],3.69
15,LVVFTAPMEIYGSAVADKLDNSRS [S7P],1.93
16,LVVFTAGMEIYGSAVADKLDNSRS [S7G],1.24
17,LVVFTAFMEIYGSAVADKLDNSRS [S7F],2.06
18,LVVFTASMEIYWSAVADKLDNSRS [G12W],2.26
19,LVVFTASMEIYPSAVADKLDNSRS [G12P],2.37
20,LVVFTASMEIYESAVADKLDNSRS [G12E],1.45
21,LVVFTASMEIYGSAVADKLDNSES [R23E],2.94
22,LVVFTASMEIYGSAVADKLDNSHS [R23H],2.77
23,LVVFTASMEIYGSAVADKLDNSPS [R23P],2.61
24,LVVFTASMEIYGSAVADKLDNSCS [R23C],2.03

row,Variant,protein stability index
1,LVVFTASMEIYGSAVADKLDNSSS [R23S],2.05
2,LVVFTASMEIYGSAVADKLDNSQS [R23Q],1.86
3,LVVFTASMEIYGSAVHDKLDNSRS [A16H],3.11
4,LVVFTASMEIYGSAVPDKLDNSRS [A16P],3.45
5,LVVFTASMEIYGSAVEDKLDNSRS [A16E],2.34
6,LVVFTASMEIYGSAVKDKLDNSRS [A16K],2.89
7,LVVFTASMEIYGSAVFDKLDNSRS [A16F],4.14
8,LVVFTISMEIYGSAVADKLDNSRS [A6I],4.3
9,LVVFTNSMEIYGSAVADKLDNSRS [A6N],1.53
10,LVVFTLSMEIYGSAVADKLDNSRS [A6L],2.11
11,LVVFTESMEIYGSAVADKLDNSRS [A6E],1.54
12,LVVFTQSMEIYGSAVADKLDNSRS [A6Q],2.02
13,LVVFTYSMEIYGSAVADKLDNSRS [A6Y],2.47
14,LVVFTASLEIYGSAVADKLDNSRS [M8L],2.01
15,LVVFTASVEIYGSAVADKLDNSRS [M8V],2.73
16,LVVFTASGEIYGSAVADKLDNSRS [M8G],1.31
17,LVVFTASSEIYGSAVADKLDNSRS [M8S],1.02
18,LVVFTASQEIYGSAVADKLDNSRS [M8Q],1.49
19,LVVFTASEEIYGSAVADKLDNSRS [M8E],1.83
20,LVVFTASHEIYGSAVADKLDNSRS [M8H],2.98
21,LVVFTASMEIYGSAYADKLDNSRS [V15Y],1.87
22,LVVFTASMEIYGSAAADKLDNSRS [V15A],2
